Test results from patent US20230201322A1.

Key:
Conditions in all cases: remark: other sources report otherwise
[1] = target: T1, HLA-A*0201 molecule expressed on the human tumoral cell T2 (human); assay: T2 cell HLA-A2 FACS (BB7.2-PE), peptide titration
[2] = target: T1, HLA-A*0201 molecule expressed on the …; assay: T2 cell HLA-A2 FACS (BB7.2-PE), peptide 1 µM
[3] = target: T1, HLA-A*0201 molecule expressed on the …; assay: T2 cell HLA-A2 FACS (BB7.2-PE), peptide 0.1 µM
[4] = target: T1, HLA-A*0201 molecule expressed on the …; assay: T2 cell HLA-A2 FACS (BB7.2-PE), peptide 100 µM
[5] = target: T1, HLA-A*0201 molecule expressed on the …; assay: T2 cell HLA-A2 FACS (BB7.2-PE), peptide 10 µM
[6] = target: T1, HLA-A*0201 molecule expressed on the …; assay: T2 cell HLA-A2 FACS (BB7.2-PE); ratio of 20% concentrations against HIV pol 589-597

| Conc. inducing 20% of HLA-A2 expression [1] [µM] | HLA-A2 labelling as % of reference peptide HIV pol 589-597 at 100 µM [2] [%] | HLA-A2 labelling as % of reference peptide HIV pol 589-597 at 100 µM [3] [%] | HLA-A2 labelling as % of reference peptide HIV pol 589-597 at 100 µM [4] [%] | HLA-A2 labelling as % of reference peptide HIV pol 589-597 at 100 µM [5] [%] | Relative affinity [6] | Binder |
| --- | --- | --- | --- | --- | --- | --- |
| 16.3 | -24 | -12.6 | 196 | 11.9 | 0.45 | VVLGVVFGI [reference human peptide derived from ERBB2, ERBB2-3H (…)] |
| 6.9 | 1.51 | -14.6 | 336 | 57 | 0.19 | VLLGVVFGV [antigenic peptide ERBB2-3B2 (…)] |
